Reference: US20240269235A1 (Gilead, published 2024)

Experiments:
[1] = biological target: T1, IL-2Rα (recombinant IL-2 receptor α, R&D Systems Cat #: 223-2A/CF), biotinylated (human, UniProt P01589 22-213, limits assumed, biotinylated using sulfo-NHS-LC-LC-Biotin); experiment: SPR (Biacore), CM4 chip, biotinylated receptor on neutravidin
T1 construct: Bought reagent; also used here as the IL-2Rα partner of the in-silico analysis of PDB 2B5I (another construct); also called IL-2RA; CD25
T1 sequence (looked up): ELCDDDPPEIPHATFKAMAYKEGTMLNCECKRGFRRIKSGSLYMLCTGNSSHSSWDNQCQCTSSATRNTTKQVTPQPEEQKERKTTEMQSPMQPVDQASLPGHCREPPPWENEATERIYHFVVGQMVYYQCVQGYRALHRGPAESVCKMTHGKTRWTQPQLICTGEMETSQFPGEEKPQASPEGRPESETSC

[2] = biological target: T2, IL-2Rβγ heterodimer, custom biotinylated Fc fusion protein (human IL-2Rβ 27-240-Fc-FLAG / human IL-2Rγ … (human, site-specific biotinylation at the AviTag)); experiment: as above
T2 construct: Extracellular regions fused to IgG1 knob-in-hole Fc subunits with tags; also called IL-2 receptor βγ heterodimer; Fc-IL-2Rβγ

[3] = biological target: T3, human IL-2Rα on Treg cells (CD3+, CD4+, CD25hi, FoxP3+) of human PBMC (human, UniProt P01589 22-272); experiment: cell-based or functional assay
T3 sequence (looked up): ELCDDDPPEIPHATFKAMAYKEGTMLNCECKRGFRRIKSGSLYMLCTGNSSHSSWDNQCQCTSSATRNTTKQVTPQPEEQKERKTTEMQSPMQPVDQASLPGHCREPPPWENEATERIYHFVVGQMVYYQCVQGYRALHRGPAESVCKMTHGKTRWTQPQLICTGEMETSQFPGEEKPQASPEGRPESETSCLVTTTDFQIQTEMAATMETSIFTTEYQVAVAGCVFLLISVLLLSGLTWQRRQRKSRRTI

[4] = biological target: T4, IL-2Rαβγ on KHYG-1 cells (human NK leukemia cell line that expresses IL-2Rα, β, and γ) (human, UniProt P01589 22-272; P14784 27-551; P31785 23-369); experiment: cell-based or functional assay
T4 sequence (looked up) 1: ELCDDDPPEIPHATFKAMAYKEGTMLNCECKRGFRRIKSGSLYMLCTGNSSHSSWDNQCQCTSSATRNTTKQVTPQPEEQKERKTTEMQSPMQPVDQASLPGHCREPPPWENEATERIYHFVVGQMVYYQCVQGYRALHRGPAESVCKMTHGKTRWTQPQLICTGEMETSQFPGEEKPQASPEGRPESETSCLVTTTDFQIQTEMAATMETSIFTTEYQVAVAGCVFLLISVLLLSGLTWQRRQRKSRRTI
T4 sequence (looked up) 2: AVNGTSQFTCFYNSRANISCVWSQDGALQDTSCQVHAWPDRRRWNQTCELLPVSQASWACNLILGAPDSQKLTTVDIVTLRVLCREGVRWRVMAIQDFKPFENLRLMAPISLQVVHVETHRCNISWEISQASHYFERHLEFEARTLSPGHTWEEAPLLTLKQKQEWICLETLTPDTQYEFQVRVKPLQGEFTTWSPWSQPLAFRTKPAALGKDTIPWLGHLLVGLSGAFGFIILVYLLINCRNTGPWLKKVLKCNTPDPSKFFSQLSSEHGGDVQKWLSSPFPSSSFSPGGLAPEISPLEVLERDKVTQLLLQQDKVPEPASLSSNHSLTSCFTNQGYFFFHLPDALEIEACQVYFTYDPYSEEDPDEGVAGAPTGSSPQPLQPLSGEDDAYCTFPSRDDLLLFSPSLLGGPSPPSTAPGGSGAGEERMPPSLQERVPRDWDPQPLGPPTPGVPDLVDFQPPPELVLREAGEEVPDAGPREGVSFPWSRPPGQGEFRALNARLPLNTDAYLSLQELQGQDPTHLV
T4 sequence (looked up) 3: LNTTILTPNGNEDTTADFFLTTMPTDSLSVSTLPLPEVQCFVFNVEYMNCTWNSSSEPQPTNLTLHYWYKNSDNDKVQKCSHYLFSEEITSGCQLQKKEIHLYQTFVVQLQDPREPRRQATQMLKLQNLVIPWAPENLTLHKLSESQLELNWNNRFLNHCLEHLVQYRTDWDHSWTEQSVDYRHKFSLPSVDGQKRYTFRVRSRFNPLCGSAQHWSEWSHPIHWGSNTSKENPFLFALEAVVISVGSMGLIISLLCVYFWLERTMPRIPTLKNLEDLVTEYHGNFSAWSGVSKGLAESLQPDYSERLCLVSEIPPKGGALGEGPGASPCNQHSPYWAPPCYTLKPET

Kd [1]: 60 nM | Kd [2]: 0.056 nM | Treg EC50, STAT5 activation (PBMC STAT5 assay) [3]: < 0.001 nM | Proliferation of KHYG-1 NK cells, EC50 [4]: 0.016 nM
B1: Fc-IL-2 heterodimer 117.46 (hIL-2v_Δ1-5_C125S), native IL-2Rα binding interface (Fc fusion)
chain 1: ESKYGPPCPPCPAPEAAGGPSVFLFPPKPKDTLMISRTPEVTCVVVDVSQEDPEVQFNWYVDGVEVHNAKTKPREEQFNSTYRVVSVLTVLHQDWLNGKEYKCKVSNKGLPSSIEKTISKAKGQPREPQVYTLPPSQEEMTKNQVSLWCLVKGFYPSDIAVEWESNGQPENNYKTTPPVLDSDGSFFLYSRLTVDKSRWQEGNVFSCSVMHEALHNHYTQKSLSLSLGGGGGSGGGGSGGGGSGGGGSSTKKTQLQLEHLLLDLQMILNGINNYKNPKLTRMLTFKFYMPKKATELKHLQCLEEELKPLEEVLNLAQSKNFHLRPRDLISNINVIVLELKGSETTFMCEYADETATIVEFLNRWITFSQSIISTLT
chain 2: ESKYGPPCPPCPAPEAAGGPSVFLFPPKPKDTLMISRTPEVTCVVVDVSQEDPEVQFNWYVDGVEVHNAKTKPREEQFNSTYRVVSVLTVLHQDWLNGKEYKCKVSNKGLPSSIEKTISKAKGQPREPQVYTLPPSQEEMTKNQVSLSCAVKGFYPSDIAVEWESNGQPENNYKTTPPVLDSDGSFFLVSRLTVDKSRWQEGNVFSCSVMHEALHNRFTQKSLSLSLGK
notes: hIgG4 knob-in-hole Fc heterodimer
